# Like-named read-outs stand apart in the source and are kept apart here.
# Assays:
# [1] = molecular target: T1, recombinant human TNF (human, UniProt P01375 77-233); assay: Standard TNFR2/TNF interference ELISA: ICVD mixed with human TNF, TNF captured on coated Enbrel (competition)
# T1 construct: also called TNF-alpha; TNFα
# [2] = molecular target: T1, recombinant human TNF; assay: Standard TNFR2/TNF interference ELISA (competition), against ID32F
# [3] = molecular target: T2, recombinant soluble human IL-6R (human, UniProt P08887 20-365); assay: Standard gp130 ELISA: ICVD mixed with soluble human IL-6R, then IL-6; complex captured on coated gp130 (competition)
# T2 construct: extracellular domain; Printed only as 'soluble'; read as the extracellular domain; also called hIL-6R; sIL-6R
# T2 sequence (looked up): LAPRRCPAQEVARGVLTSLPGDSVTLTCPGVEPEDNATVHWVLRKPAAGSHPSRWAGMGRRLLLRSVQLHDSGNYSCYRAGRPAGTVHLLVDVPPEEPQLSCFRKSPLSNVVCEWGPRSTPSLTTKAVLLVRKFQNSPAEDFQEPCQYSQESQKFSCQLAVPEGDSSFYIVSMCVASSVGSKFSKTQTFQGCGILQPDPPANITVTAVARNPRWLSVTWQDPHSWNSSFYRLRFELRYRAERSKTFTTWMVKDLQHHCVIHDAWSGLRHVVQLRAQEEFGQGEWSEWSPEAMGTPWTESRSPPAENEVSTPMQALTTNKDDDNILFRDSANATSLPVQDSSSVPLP
# [4] = molecular target: T2, recombinant soluble human IL-6R; assay: as above; remark: listed apart in the source
# T1 sequence (P01375 77-233 limits assumed): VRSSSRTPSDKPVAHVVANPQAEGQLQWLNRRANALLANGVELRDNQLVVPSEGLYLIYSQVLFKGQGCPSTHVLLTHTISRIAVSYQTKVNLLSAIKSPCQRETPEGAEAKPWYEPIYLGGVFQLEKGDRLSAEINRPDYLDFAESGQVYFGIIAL
binder,measurement,setting,value
"anti-TNF-alpha ICVD ID8F-EV (VHH, also called Q65B1 with a K59H substitution; K59H; not shown: C-terminal Flag-His6 tag) VHH: EVQLVESGGGLVQPGGSLKLSCAASGFDFSSHWMYWVRQAPGKELEWLSEINTNGLITHYGDSVKGRFTVSRNNAANKMYLELTRLEPEDTALYYCARNQKGLNKGQGTQVTVSS",EC50,[1],0.139 nM
"anti-TNF-alpha ICVD ID43F (VHH, also called Q65B1 with a K59A substitution; K59A; not shown: C-terminal Flag-His6 tag) VHH: EVQLVESGGGLVQPGGSLKLSCAASGFDFSSHWMYWVRQAPGKELEWLSEINTNGLITAYGDSVKGRFTVSRNNAANKMYLELTRLEPEDTALYYCARNQKGLNKGQGTQVTVSS",EC50,[1],0.603 nM
"anti-TNF-alpha ICVD Q65B1 (VHH, also called K59; not shown: C-terminal Flag-His6 tag) VHH: EVQLVESGGGLVQPGGSLKLSCAASGFDFSSHWMYWVRQAPGKELEWLSEINTNGLITKYGDSVKGRFTVSRNNAANKMYLELTRLEPEDTALYYCARNQKGLNKGQGTQVTVSS",EC50,[1],0.0984 nM
"anti-TNF-alpha ICVD ID44F (VHH, also called Q65B1 with a K59Q substitution; K59Q; not shown: C-terminal Flag-His6 tag) VHH: EVQLVESGGGLVQPGGSLKLSCAASGFDFSSHWMYWVRQAPGKELEWLSEINTNGLITQYGDSVKGRFTVSRNNAANKMYLELTRLEPEDTALYYCARNQKGLNKGQGTQVTVSS",EC50,[1],0.245 nM
"anti-TNF-alpha ICVD ID34F (VHH, also called Q65B1 with K59H and K101H) VHH: EVQLVESGGGLVQPGGSLKLSCAASGFDFSSHWMYWVRQAPGKELEWLSEINTNGLITHYGDSVKGRFTVSRNNAANKMYLELTRLEPEDTALYYCARNQHGLNKGQGTQVTVSS",binding result,[2],binds
anti-IL-6R ICVD 5G9 (VHH) VHH: EVQLVESGGGLVQAGGSTRLTCKASGSIFNINSINVMAWYRQAPGKQRELVAIIGKGGGTNYADFVKGRFTISRDAAKNTVNLQMNSLKPEDTAVYYCYADYEDRDSPFNASWGQGTQVTVSS,EC50,[3],0.09 nM
"anti-IL-6R ICVD ID-54V (VHH, also called 5G9 with R105H) VHH: EVQLVESGGGLVQAGGSTRLTCKASGSIFNINSINVMAWYRQAPGKQRELVAIIGKGGGTNYADFVKGRFTISRDAAKNTVNLQMNSLKPEDTAVYYCYADYEDHDSPFNASWGQGTQVTVSS",EC50,[3],0.15 nM
anti-IL-6R ICVD 7F6 (VHH) VHH: EVQLVESGGGLVQAGGSTRLTCLASGSISSINVIGWYRQAPGKQRELVAMIGRGEGANYGDFAKGRFTISRDNSKNTVYLQMNSLKPEDTAVYYCYADYEDRDSPFNGSWGQGTQVTVSS,EC50,[4],0.15 nM
"anti-IL-6R ICVD ID-3V (VHH, also called 7F6 with R102H) VHH: EVQLVESGGGLVQAGGSTRLTCLASGSISSINVIGWYRQAPGKQRELVAMIGRGEGANYGDFAKGRFTISRDNSKNTVYLQMNSLKPEDTAVYYCYADYEDHDSPFNGSWGQGTQVTVSS",EC50,[4],0.16 nM
